Data published in publication PMC13365404.

Target: EBOV GP ectodomain for structural work (EBOV Mayinga, residues 33-651, mucin-like domain deleted, double Strep-tag) (Orthoebolavirus zairense (Ebola virus, EBOV), Mayinga) (UniProt Q05320)
Experiment: cryo-EM structure

“EBOV GP ectodomain for structural work (EBOV Mayinga, residues 33-651, mucin-like domain deleted, double Strep-tag) (from UniProt Q05320 33-651) (domain or fragment)” was tested, and the stoichiometry N was 3.
